Measured values published in publication doi:10.1101/686782.

Assays:
Test in all cases: cryo-EM structure
[1] = target: V. mimicus FliPQR complex (FliP5Q4R1) (Vibrio mimicus)
[2] = target: V. mimicus FliP (Vibrio mimicus)
[3] = target: V. mimicus FliQ (Vibrio mimicus)

V. mimicus FlhB (natural protein) showed a stoichiometry N [1] of 1.

In the case of V. mimicus FliP (natural protein), the stoichiometry N [2] is reported as 5.

Substance V. mimicus FliQ (natural protein) has a stoichiometry N [3] of 4.
